The values that follow are results of earlier work, collected in publication doi:10.1101/2024.09.05.611512.

The Ki is the equilibrium dissociation constant of an inhibitor or competing ligand from its target. For orientation: Kd means the concentration at which binding is half-saturated.

For data set [1], the target named is calpain 1 & 2 (Homo sapiens) (UniProt P07384).
The target of a further data set is S100A10 (Homo sapiens) (UniProt P60903).
Chain of UniProt P60903 (P60903 whole entry): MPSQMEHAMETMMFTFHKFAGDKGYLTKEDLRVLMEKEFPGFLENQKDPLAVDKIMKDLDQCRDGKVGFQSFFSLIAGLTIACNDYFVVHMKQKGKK

Chain of UniProt P07384 (P07384 2-714): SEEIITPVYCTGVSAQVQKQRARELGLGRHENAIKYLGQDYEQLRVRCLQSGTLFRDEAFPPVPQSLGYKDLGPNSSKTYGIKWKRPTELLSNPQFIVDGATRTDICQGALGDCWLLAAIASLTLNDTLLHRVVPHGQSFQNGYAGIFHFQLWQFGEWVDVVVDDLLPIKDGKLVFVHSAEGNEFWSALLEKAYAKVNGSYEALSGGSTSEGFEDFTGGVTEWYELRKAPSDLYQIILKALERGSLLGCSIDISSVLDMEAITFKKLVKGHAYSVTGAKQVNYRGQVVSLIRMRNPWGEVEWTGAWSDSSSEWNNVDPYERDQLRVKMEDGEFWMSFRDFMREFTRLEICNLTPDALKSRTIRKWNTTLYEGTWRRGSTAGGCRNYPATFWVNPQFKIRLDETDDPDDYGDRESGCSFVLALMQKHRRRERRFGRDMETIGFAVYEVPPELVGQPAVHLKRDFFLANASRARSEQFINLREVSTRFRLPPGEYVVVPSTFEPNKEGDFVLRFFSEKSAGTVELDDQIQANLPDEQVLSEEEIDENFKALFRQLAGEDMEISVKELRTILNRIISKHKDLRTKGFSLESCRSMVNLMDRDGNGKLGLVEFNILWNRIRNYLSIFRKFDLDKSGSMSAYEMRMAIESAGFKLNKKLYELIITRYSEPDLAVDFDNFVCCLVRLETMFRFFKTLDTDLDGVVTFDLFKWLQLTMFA

“calpastatin domain I (from UniProt P20810)”: in data set [1], the Ki is 15 nM.

As for “annexin A2 first 10-12 residues (from UniProt P07355)”, the Kd with S100A10 (Homo sapiens) was 13 nM.
